# From US20240010684A1 (Bayer, published 2024)
# Read-outs that look alike come from different tables or passages of the source. *1 amine or outer side, *2 acyl side, *3 side chain or, on linkers, in order; H or OH if unused. Bridges are numbered along the chain shown (N, C = ends). Where no end group is shown, it is not given here. [ ]: non-standard residue; d: D form. Oic = O=C(O)[C@@H]1C[C@@H]2CCCC[C@@H]2N1; Adipoyl = O=C(CCCCC(=O)[*:2])[*:1]; Trx = NC[C@H]1CC[C@H](C(=O)O)CC1; tBuAla = CC(C)(C)C[C@H](N)C(=O)O; Pen = CC(C)(S)[C@H](N)C(=O)O; 4Amb = NCc1ccc(C(=O)O)cc1; Dab = NCC[C@H](N)C(=O)O; Dap = NC[C@H](N)C(=O)O; Ahx = NCCCCCC(=O)O; GABA = NCCCC(=O)O; Sar = CNCC(=O)O
# T1: recombinant human MASP1 (amino acids 297-699, C-terminal His Tag) (human, UniProt P48740 297-699)
# T1 sequence: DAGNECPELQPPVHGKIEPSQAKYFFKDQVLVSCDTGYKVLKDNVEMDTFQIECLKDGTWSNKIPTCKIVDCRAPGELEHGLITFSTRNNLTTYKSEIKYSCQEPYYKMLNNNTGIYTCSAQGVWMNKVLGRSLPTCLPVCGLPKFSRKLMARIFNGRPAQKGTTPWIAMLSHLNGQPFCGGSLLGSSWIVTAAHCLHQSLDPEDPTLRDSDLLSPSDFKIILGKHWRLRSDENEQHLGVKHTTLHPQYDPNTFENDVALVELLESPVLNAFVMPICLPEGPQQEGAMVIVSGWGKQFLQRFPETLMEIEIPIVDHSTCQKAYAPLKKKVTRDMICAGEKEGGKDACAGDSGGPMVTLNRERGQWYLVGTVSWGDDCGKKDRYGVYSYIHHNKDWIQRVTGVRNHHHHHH
# T2: recombinant rat MASP1 (amino acids 302-704, C-terminal His Tag) (rat, UniProt Q8CHN8 302-704)
# T2 sequence: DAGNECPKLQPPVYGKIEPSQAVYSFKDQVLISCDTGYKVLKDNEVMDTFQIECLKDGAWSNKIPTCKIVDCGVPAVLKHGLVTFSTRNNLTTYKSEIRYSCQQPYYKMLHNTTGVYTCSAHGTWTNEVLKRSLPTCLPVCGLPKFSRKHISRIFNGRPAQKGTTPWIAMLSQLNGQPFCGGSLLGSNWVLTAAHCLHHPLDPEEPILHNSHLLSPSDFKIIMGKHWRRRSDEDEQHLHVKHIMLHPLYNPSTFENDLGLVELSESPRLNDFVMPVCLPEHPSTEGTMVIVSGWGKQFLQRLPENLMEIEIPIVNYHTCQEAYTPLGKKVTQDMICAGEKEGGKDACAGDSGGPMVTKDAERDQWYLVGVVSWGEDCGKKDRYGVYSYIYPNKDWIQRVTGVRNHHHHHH
# Experiments:
# Assay in all cases: cell-based or functional assay
# [1] = target: T1, recombinant human MASP1 (amino acids …)
# [2] = target: recombinant human MASP2 (amino acids 297-686, C-terminal His Tag) (human, UniProt O00187 297-686)
# recombinant human MASP2 (amino acids 297-686, C-terminal His Tag), sequence (O00187 other isoform, or with tags, fused parts or gaps limits assumed): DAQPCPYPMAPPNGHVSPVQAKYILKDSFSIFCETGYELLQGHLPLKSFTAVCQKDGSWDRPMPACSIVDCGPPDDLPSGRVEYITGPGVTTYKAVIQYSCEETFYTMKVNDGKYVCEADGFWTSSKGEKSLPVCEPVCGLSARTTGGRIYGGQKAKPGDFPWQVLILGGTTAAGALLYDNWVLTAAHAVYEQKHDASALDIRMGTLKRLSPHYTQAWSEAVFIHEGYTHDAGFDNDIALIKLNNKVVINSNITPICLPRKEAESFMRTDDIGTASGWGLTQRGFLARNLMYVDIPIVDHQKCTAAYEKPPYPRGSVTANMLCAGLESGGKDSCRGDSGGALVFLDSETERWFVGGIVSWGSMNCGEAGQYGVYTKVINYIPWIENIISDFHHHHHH
# [3] = target: T2, recombinant rat MASP1 (amino acids …)
# [4] = target: T3, recombinant rat MASP2 (amino acids 296-685, C-terminal His Tag) (rat, UniProt Q9JJS8 296-685)
# T3 sequence (Q9JJS8 other isoform, or with tags, fused parts or gaps limits assumed): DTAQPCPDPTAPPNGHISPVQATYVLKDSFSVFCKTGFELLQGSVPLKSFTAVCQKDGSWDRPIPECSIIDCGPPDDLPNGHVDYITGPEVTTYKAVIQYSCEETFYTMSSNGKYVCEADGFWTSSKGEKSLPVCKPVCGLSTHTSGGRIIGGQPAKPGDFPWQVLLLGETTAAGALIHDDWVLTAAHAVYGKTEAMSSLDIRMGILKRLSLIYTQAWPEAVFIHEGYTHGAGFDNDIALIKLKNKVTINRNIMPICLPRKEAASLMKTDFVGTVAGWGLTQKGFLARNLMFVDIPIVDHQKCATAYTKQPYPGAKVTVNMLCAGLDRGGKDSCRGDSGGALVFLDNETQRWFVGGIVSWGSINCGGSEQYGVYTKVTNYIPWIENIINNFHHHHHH
# [5] = target: T1, recombinant human MASP1 (amino acids …); remark: listed apart in the source
# [6] = target: T2, recombinant rat MASP1 (amino acids …); remark: listed apart in the source
# [7] = target: T3, recombinant rat MASP2 (amino acids …); remark: listed apart in the source
Binder,human MASP1 IC50 [1],human MASP2 IC50 [2],rat MASP1 IC50 [3],rat MASP2 IC50 [4],human MASP1 IC50 [5],rat MASP1 IC50 [6],rat MASP2 IC50 [7]
cyclo([Dap]ICSRS[tBuAla]PPI[Pen]IP) (disulfide 3-11; also: TFA salt) [Example 55: (Dap)**-IC+SRS-((tBu)A)-PPI-(Pen)+-IP**],46 nM,900 nM,–,–,–,–,–
cyclo([Ahx]GICSRSLPPICIPD) (disulfide 4-12; also: TFA salt) [Example 13: (Ahx)**-GIC+SRSLPPIC+IPD**],140 nM,130 nM,–,–,–,–,–
cyclo([Ahx][Trx]ICSRS[tBuAla]PPI[Pen]IP) (disulfide 4-12; also: TFA salt) [Example 59: (Ahx)**-(TXA)-IC+SRS-((tBu)A)-PPI-(Pen)+-IP**],11 nM,5.7 nM,48.6 nM,–,–,–,–
cyclo([Dab]ICSRS[tBuAla]PPI[Pen]IP) (disulfide 3-11; also: TFA salt) [Example 56: (Dab)**-IC+SRS-((tBu)A)-PPI-(Pen)+-IP**],86 nM,1100 nM,–,–,–,–,–
cyclo(AGGICSRS[tBuAla]PPI[Pen]IP[dD]) (disulfide 5-13; also: TFA salt) [Example 39: A**GGIC+SRS-((tBu)A)-PPI-(Pen)+-IPd**],6 nM,75 nM,44 nM,8 nM,–,–,–
cyclo(AGGICSRSLP[Oic]I[Pen]IP[dD]) (disulfide 5-13; also: TFA salt) [Example 98: A**GGIC+SRSLP-(Oic)-I-(Pen)+-IPd**],19 nM,160 nM,170 nM,–,–,–,–
cyclo(ICSRS[tBuAla]PPI[Pen]IPP) (disulfide 2-10; also: TFA salt) [Example 58: I**C+SRS-((tBu)A)-PPI-(Pen)+-IPP**],9 nM,650 nM,110 nM,46 nM,–,–,–
cyclo([Ahx][Sar]ICSRS[tBuAla]PPI[Pen]I) (disulfide 4-12; also: TFA salt) [Example 64: (Ahx)**-((N-Me)G)-IC+SRS-((tBu)A)-PPI-(Pen)+-I**],9.4 nM,12 nM,157 nM,13 nM,–,–,–
cyclo([Ahx]ICSRS[tBuAla]PPI[Pen]I) (disulfide 3-11; also: TFA salt) [Example 52: (Ahx)**-IC+SRS-((tBu)A)-PPI-(Pen)+-I**],7.9 nM,9.3 nM,79 nM,11.6 nM,–,–,–
"CAICSRS[tBuAla]PPI[Pen]IPDC-NH2 (disulfide 1-16, 4-12; also: TFA salt) [Example 50: C++AIC+SRS-((tBu)A)-PPI-(Pen)+-IPDC++-NH2]",13 nM,210 nM,–,–,–,–,–
Adipoyl-ICSRS[tBuAla]PPI[Pen]IPD[Dap]-NH2 (lactam (positions not given here); disulfide 2-10; not fully specified (bridges); also: TFA salt) [Example 60: (Adipic acid)**-IC+SRS-((tBu)A)-PPI-(Pen)+-IPD-(Dap)++-NH2],58 nM,5.4 nM,330 nM,13 nM,–,–,–
cyclo([Dap][Dap]ICSRS[tBuAla]PPI[Pen]I) (disulfide 4-12; also: TFA salt) [Example 57: (Dap)**-(Dap)-IC+SRS-((tBu)A)-PPI-(Pen)+-I**],46 nM,340 nM,–,–,–,–,–
cyclo([Ahx]GICSRS[tBuAla]PPI[Pen]IPD) (disulfide 4-12; also: TFA salt) [Example 28: (Ahx)**-GIC+SRS-((tBu)A)-PPI-(Pen)+-IPD**],19 nM,29 nM,79 nM,16 nM,–,–,–
cyclo([GABA]ICSRS[tBuAla]PPI[Pen]IPD) (disulfide 3-11; also: TFA salt) [Example 35: (Gamma-Abu)**-IC+SRS-((tBu)A)-PPI-(Pen)+-IPD**],4.1 nM,–,63 nM,24 nM,–,–,–
cyclo([Ahx][4Amb]ICSRS[tBuAla]PPI[Pen]IP) (disulfide 4-12; also: TFA salt) [Example 68: (Ahx)**-(4-(Aminomethyl)benzoic acid)-IC+SRS-((tBu)A)-PPI-(Pen)+-IP**],6.1 nM,2.57 nM,30.8 nM,2.97 nM,–,–,–
[Ahx]ICSRSLP[Oic]I[Pen]IPE-NH2 (disulfide 3-11; lactam N-14; also: TFA salt) [Example 75: (Ahx)**-IC+SRSLP-(Oic)-I-(Pen)+-IPE++-NH2],7.2 nM,14 nM,27 nM,1.4 nM,–,–,–
EGICSRSLP[Oic]I[Pen]IPD[Dap]-NH2 (lactam 1-16; disulfide 4-12; also: TFA salt) [Example 93: E++GIC+SRSLP-(Oic)-I-(Pen)+-IPD-(Dap)++-NH2],35 nM,45 nM,410 nM,68 nM,–,–,–
cyclo(GYCSRSYPPVCIPD) (disulfide 3-11; SMILES CC[C@H](C)[C@@H]1NC(=O)[C@@H]2CSSC[C@H](NC(=O)[C@H](Cc3ccc(O)cc3)NC(=O)CNC(=O)[C@H](CC(=O)O)NC(=O)[C@@H]3CCCN3C1=O)C(=O)N[C@@H](CO)C(=O)N[C@@H](CCCNC(=N)N)C(=O)N[C@@H](CO)C(=O)N[C@@H](Cc1ccc(O)cc1)C(=O)N1CCC[C@H]1C(=O)N1CCC[C@H]1C(=O)N[C@@H](C(C)C)C(=O)N2) [Bicyclic SFMI-2: G**YC+SRSYPPVC+IPD**],–,–,–,–,8130 nM,1000 nM,126 nM
cyclo([Ahx][Sar]ICSRS[tBuAla]PPI[Pen]IP) (disulfide 4-12; also: TFA salt) [Example 54: (Ahx)**-((N-Me)G)-IC+SRS-((tBu)A)-PPI-(Pen)+-IP**],8.5 nM,33 nM,180 nM,18 nM,–,–,–
cyclo([Ahx]AICSRS[tBuAla]PPI[Pen]IP) (disulfide 4-12; also: TFA salt) [Example 53: (Ahx)**-AIC+SRS-((tBu)A)-PPI-(Pen)+-IP**],6.75 nM,83.5 nM,96 nM,19 nM,–,–,–
cyclo([Ahx]AICSRS[tBuAla]PPI[Pen]I) (disulfide 4-12; also: TFA salt) [Example 72: (Ahx)**-AIC+SRS-((tBu)A)-PPI-(Pen)+-I**],6.3 nM,48 nM,85 nM,14 nM,–,–,–
[Ahx]GICSRSLP[Oic]I[Pen]IPD-NH2 (disulfide 4-12; lactam N-15; also: TFA salt) [Example 49: (Ahx)**-GIC+SRSLP-(Oic)-I-(Pen)+-IPD++-NH2],19 nM,140 nM,–,–,–,–,–
cyclo([Ahx]ICSRS[tBuAla]PPI[Pen]IP) (disulfide 3-11; also: TFA salt) [Example 51: (Ahx)**-IC+SRS-((tBu)A)-PPI-(Pen)+-IP**],6.3 nM,17 nM,–,–,–,–,–
cyclo(AGGICSRSLP[Oic]I[Pen]IPD) (disulfide 5-13; also: TFA salt) [Example 92: A**GGIC+SRSLP-(Oic)-I-(Pen)+-IPD**],8.4 nM,77 nM,170 nM,41 nM,–,–,–
cyclo([Dap][Dap]ICSRSLP[Oic]I[Pen]IP) (disulfide 4-12; also: TFA salt) [Example 89: (Dap)**-(Dap)-IC+SRSLP-(Oic)-I-(Pen)+-IP**],5.7 nM,91 nM,290 nM,64 nM,–,–,–
